According to patent US6395548:

Molecular target: EPAS1 (HIF-2alpha) (Homo sapiens) (UniProt Q99814)
Experiment: cell_activity
Details: luciferase reporter, 6 ug plasmid, BAEC; direct binding not shown

Chain of EPAS1 (HIF-2alpha) (Homo sapiens) (Q99814 whole entry): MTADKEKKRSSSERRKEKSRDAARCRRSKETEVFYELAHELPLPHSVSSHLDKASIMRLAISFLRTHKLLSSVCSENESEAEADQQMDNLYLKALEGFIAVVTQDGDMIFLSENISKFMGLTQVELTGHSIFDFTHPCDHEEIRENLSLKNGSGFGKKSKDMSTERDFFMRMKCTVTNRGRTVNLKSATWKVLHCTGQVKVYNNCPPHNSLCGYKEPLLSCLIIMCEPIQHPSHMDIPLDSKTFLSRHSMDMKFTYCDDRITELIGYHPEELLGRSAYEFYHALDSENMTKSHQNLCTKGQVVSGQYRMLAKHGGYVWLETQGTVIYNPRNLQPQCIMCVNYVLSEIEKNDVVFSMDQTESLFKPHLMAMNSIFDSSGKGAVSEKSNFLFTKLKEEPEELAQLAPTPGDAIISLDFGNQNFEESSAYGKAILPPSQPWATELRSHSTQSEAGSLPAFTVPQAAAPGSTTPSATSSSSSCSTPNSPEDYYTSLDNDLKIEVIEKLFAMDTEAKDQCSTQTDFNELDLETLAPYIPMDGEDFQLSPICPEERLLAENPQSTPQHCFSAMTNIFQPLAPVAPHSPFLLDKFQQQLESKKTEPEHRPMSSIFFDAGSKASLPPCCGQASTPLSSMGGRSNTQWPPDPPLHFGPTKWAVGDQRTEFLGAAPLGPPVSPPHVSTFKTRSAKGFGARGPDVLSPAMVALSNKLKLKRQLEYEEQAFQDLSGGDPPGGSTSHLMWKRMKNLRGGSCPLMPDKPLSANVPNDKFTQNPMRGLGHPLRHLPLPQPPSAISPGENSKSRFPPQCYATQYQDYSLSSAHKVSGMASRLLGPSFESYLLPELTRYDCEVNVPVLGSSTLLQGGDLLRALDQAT

KDR/flk-1 promoter -4 kb to +296
activity: 12.9 fold
